Reference: PMC9887155, “Kinetics of cone specific G-protein signaling in avian photoreceptor cells” (Frontiers in Molecular Neuroscience, 2023)
Where “and” joins values, the source holds several entries; their conditions need not be identical. Identical values can stand only once. Like-named read-outs stand apart in the source and are kept apart here. Ends that are not written are not given here.

Assays:
[1] = target: Gtα/Giα with a C-terminus truncated by three amino acids (European robin (Erithacus rubecula)); assay: SPR; Gt-3AA or Gt-6AA immobilised on CM5 (3.1–4.2 ng/mm^2); LWO2 injected at 120 nM (Gt-3AA) or 100 nM (Gt-6AA); global fit, Langmuir 1:1 model; apparent KD; three sets each
[2] = target: Gtα/Giα with a C-terminus truncated by six amino acids (European robin (Erithacus rubecula)); assay: as above
[3] = target: Gtα/Giα chimera (α-subunit of the cone specific heterotrimeric G protein of European robin, chimera with Giα) (European robin (Erithacus rubecula)); assay: SPR; kinetics: Gtα/Giα immobilised on CM5 (2.6–3.4 ng/mm^2); LWO2 injected at 5 to 150 nM in random order; global fit, Langmuir 1:1 model; apparent KD from kd/ka; 12 sets; same running buffer
[4] = target: Gtα/Giα with a C-terminus truncated by three amino acids (European robin (Erithacus rubecula)); assay: SPR; Gt-3AA or Gt-6AA immobilised on CM5 (3.1–4.2 ng/mm^2); LWO2 injected at 120 nM (Gt-3AA) or 100 nM (Gt-6AA); global fit, Langmuir 1:1 model; apparent KD; three sets each; remark: listed apart in the source
[5] = target: Gtα/Giα with a C-terminus truncated by six amino acids (European robin (Erithacus rubecula)); assay: as above; remark: listed apart in the source
[6] = target: Gtα/Giα chimera (α-subunit of the cone specific heterotrimeric G protein of European robin, chimera with Giα) (European robin (Erithacus rubecula)); assay: FRET or BRET; in solution: intrinsic Trp (excitation 280 nm) to dansyl on the peptide, emission 400–550 nm; peptide and Gtα/Giα each 16.7 μM; 80 mM Hepes pH 7.4, 40 mM KCl, 150 mM NaCl, 10 mM MgCl2, 10 μM GDP; 30 min on ice

| Binder | Kd [1] | koff [1] | kon [1] | Kd [2] | koff [2] | kon [2] | Kd [3] | koff [3] | kon [3] | Kd [4] | Kd [5] | decrease of dansyl fluorescence emission (FRET) on adding Gtα/Giα (relative fluorescence counts) [6] |
| --- | --- | --- | --- | --- | --- | --- | --- | --- | --- | --- | --- | --- |
| CGAGAWERWFVVCKPFGNIKFDGK-NH2 (cysteine pairing not given here) [peptide LWO2 (second cytoplasmic loop of long-wavelength-sensitive opsin of European robin)] | 8.7 nM | 0.000937 s⁻¹ | 108000 M⁻¹ s⁻¹ | 50 nM | 0.00093 s⁻¹ | 18600 M⁻¹ s⁻¹ | 15.1 nM and 21.4 nM and 3 to 41 nM | 0.000812 s⁻¹ | 53600 M⁻¹ s⁻¹ | 7.3 nM | 34.5 nM |  |
| CGAGAWERWFVVCKPFGNIKFDGK-NH2 (cysteine pairing not given here; also: dansyl coupled to free amino groups) [dansylated peptide LWO2] |  |  |  |  |  |  |  |  |  |  |  | 14000 |
